Legend:
Mouse NFS-60 cells = test: Proliferation assay on mouse NFS-60 cells (AlamarBlue); assay type: cell-based; settings: 72 hours
Method: Mouse NFS-60 cells were obtained from American Type Culture Collection (ATCC), VA, and cultured in RPMI-1640 medium supplemented with 10% fetal bovine serum (FBS), 0.05 mM 2-mercapoethanol and 62 ng/ml human macrophage colony stimulating factor (M-CSF). For proliferation assay, mouse NFS-60 cells were washed three times with RPMI-1640 medium and resuspended in RPMI-1640 medium with 10% FBS and 0.05 mM 2-mercapoethanol at a density of 1.5×10^5 cells/ml. In 96-well plates, 100 μl of cell suspension was added into each well, followed by the addition of varied concentrations of bGCSF, BLV1H12 antibody, and the immunoglobulin constructs described herein, Equal volume of PBS buffer was added into the control wells. The plates were incubated at 37° C. in a 5% CO2 incubator for 72 hours. Cells were then treated with AlamarBlue (Invitrogen) ( 1/10 volume of cell suspension) for 4 hours at 37° C. Fluorescence at 595 nm for each well was read to indicate the cell viability.

mice neutrophils = test: Neutrophil counts in mice, 10th day after injection; assay type: in vivo; settings: blood stained and counted at the 10th day post-injection
Method: On the 10th day after injection of BLV1H12-bGCSF fusion antibodies into mice for PK study, blood samples were drawn from the mice and stained using the Diff Quick Staining Kit (Thermo Fisher Scientific, IL). Neutrophils and white blood cells were counted under microscope and the percentages of neutrophils were analyzed. FIGS. 12A-12B and Table 12 show proliferative activities of BLV1H12-bGCSF fusion antibodies on mice neutrophils that are blood stained and counted at the 10th day post-injection.

Human mPB CD34+ cells = test: Proliferative activity on human granulocyte progenitors (flow cytometry); assay type: cell-based; settings: 7 days, flow cytometry
Method: Human mPB CD34^+ cells were purchased from AllCells. Cells were resuspended in HSC expansion medium (StemSpan SFEM, StemCell Technologies) supplemented with 1× antibiotics and the following recombinant human cytokines: thrombopoietin, IL6, Flt3 ligand, and stem cell factor (100 ng/mL, R & D Systems), then plated in 96-well plates (1000 cells per well), with varied concentrations of BLV1H12-bGCSF fusion antibodies. Cells were cultured for 7 days at 37° C. in a 5% CO2 incubator, then analyzed by flow cytometry to measure cell number and expression of CD45ra and CD41. Cells were stained in staining medium (HBSS supplemented with 2% FBS and 2 mM EDTA) at 4° C. for 1 h with PECy7 anti-CD45ra and eFluor 450 anti-CD41 (eBiosciences), then washed with staining medium and analyzed. Multicolor analysis for cell phenotyping was performed on a LSR II flow cytometer (Becton Dickinson). FIGS. 10A-10E and Tables 9-10 show the human granulocyte progenitor cell proliferative activities of the Ab-GCSF fusion antibodies.

[1] = Pharmacokinetics in mice (ELISA of blood samples); assay type: in vivo; settings: 70 μg injected, BALB/c mice
Method: For PK study in mice, 70 μg of the immunoglobulin constructs described herein were injected into 3 BALB/c mice per group. Blood samples were drawn from time 0 to 14 days with extended intervals and analyzed by ELISA using anti-human IgG Fc antibody with horseradish peroxidase (HRP) labeled (KPL) and anti-6×His antibody (“6×His” disclosed as SEQ ID NO: 511) with HRP labeled (Clontech). Data were normalized by taking maximal concentration at the first time point (30 min).

Parental U2OS = test: Flow cytometry binding to parental U2OS cells; settings: cell culture supernatant
Method: (§1) Briefly, a cell line expressing functionally validated CXCR1 derived from U2OS cells was obtained from DiscoveRx and cultured per manufacturer's instructions (Cat #93-0226C3, DiscoveRx Corporation, Freemont, Calif.). The parental cell line U2OS was obtained from ATCC and cultured under the same conditions as the CXCR1 cells. Cell culture supernatants from Example 2 above were then tested for binding to cells by flow cytometry. The adherent U2OS or CXCR1-U2OS cells were dissociated with Accutase (Innovative Cell Technologies, Inc., San Diego, Calif.), neutralized with an equal volume of media containing 10% serum, centrifuged at 1000 g, and resuspended in PBS with 2% BSA. Next, cells were dispensed into microtiter plates to achieve between 30,000 to 300,000 cells per well, centrifuged again, and resuspended in cell culture supernatant containing expressed IgG, or a dilution of IgG-containing cell culture supernatant. A fluorescent-conjugated anti-Human Fc antibody was used to detect binding of the expressed BLV1H12-IL8 fusion proteins to cells.

CXCR1 = target: T1, CXCR1 (Homo sapiens, UniProt P25024); test: Flow cytometry binding to CXCR1-U2OS cells
T1 construct: host or cells: U2OS
T1 sequence (P25024 1-350): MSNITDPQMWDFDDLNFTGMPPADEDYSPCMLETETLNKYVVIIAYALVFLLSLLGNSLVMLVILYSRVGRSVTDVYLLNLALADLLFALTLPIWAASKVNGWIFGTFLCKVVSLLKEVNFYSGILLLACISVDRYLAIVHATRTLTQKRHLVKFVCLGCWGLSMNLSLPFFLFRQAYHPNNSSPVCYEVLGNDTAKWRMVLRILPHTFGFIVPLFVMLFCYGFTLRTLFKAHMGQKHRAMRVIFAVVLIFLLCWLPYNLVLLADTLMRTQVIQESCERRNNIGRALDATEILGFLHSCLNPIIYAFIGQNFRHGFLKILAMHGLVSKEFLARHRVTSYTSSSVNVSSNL
Method: as §1

[2] = system: untransfected HEK293A cells; test: Immunocytometric analysis, untransfected HEK293A cells; assay type: binding, human; settings: 10 μg/ml antibody
Method: (§2) Additionally, binding of the chimeric recombinant antibodies to BVDV antigens was evaluated by immunocytometric analysis of transfected human embryonic kidney (HEK) 293A cells (Invitrogen), as previously described (see, e.g., Njongmeta et al. (2012) Vaccine 30:1624-1635). Briefly, HEK 293A monolayers grown in 6-well tissue culture plates were transfected with 2 µg/well of plasmid (pCDNA3.3, Invitrogen) encoding BVDV antigens (N^pro, E2, or non-structural proteins NS2-3) using Lipofectamine 2000 reagent (Invitrogen), and incubated for 48 hr at 37° C. with 5% CO2. The monolayers were fixed with ice-cold 100% methanol for 10 minutes, rinsed with PBS, and after blocking for 1 hr with PBS containing 5% fetal bovine serum (blocking buffer), the monolayers were incubated at room temperature for 1 hr with 10 μg/ml of a mouse anti-FLAG M2-alkaline phosphatase (AP)-conjugate (Sigma) in blocking buffer or 10 μg/ml of the chimeric recombinant antibodies (H12 or B8). […] Following washes in blocking buffer, the AP activity in all the wells was detected using Fast Red AS-MX substrate (Sigma). […]

[3] = system: NS2-3 non-structural proteins of BVDV; test: Immunocytometric analysis of HEK 293A cells transfected with BVDV antigens; assay type: binding, bovine viral diarrhea virus; settings: 10 μg/ml antibody
Method: as §2

B1: bGCSF: bovine G-CSF (protein, listed as Bos taurus)
chain: TPLGPARSLPQSFLLKCLEQVRKIQADGAELQERLCAAHKLCHPEELMLLRHSLGIPQAPLSSCSSQSLQLTSCLNQLHGGLFLYQGLLQALAGISPELAPTLDTLQLDVTDFATNIWLQMEDLGAAPAVQPTQGAMPTFTSAFQRRAGGVLVASQLHRFLELAYRGLRYLAEP
modifications: bGCSF
notes: bovine G-CSF
Mouse NFS-60 cells; 0.09145 ng/mL
  F.I. (fluorescence at 595 nm, AlamarBlue, cell viability): 1214
Mouse NFS-60 cells; 0.27435 ng/mL
  F.I. (fluorescence at 595 nm, AlamarBlue, cell viability): 1360.925
Mouse NFS-60 cells; 0.82305 ng/mL
  F.I. (fluorescence at 595 nm, AlamarBlue, cell viability): 1761
Mouse NFS-60 cells; 2.46914 ng/mL
  F.I. (fluorescence at 595 nm, AlamarBlue, cell viability): 2101
Mouse NFS-60 cells; 7.40741 ng/mL
  F.I. (fluorescence at 595 nm, AlamarBlue, cell viability): 2405
Mouse NFS-60 cells; 22.22222 ng/mL
  F.I. (fluorescence at 595 nm, AlamarBlue, cell viability): 2646
Mouse NFS-60 cells; 66.66667 ng/mL
  F.I. (fluorescence at 595 nm, AlamarBlue, cell viability): 2812.098
Mouse NFS-60 cells; 200 ng/mL
  F.I. (fluorescence at 595 nm, AlamarBlue, cell viability): 3087.144
Mice neutrophils
  Percentage of Neutrophil: 16.48
Human mPB CD34+ cells; 0.55886 ng/mL
  Number of CD45RA-CD41-: 7354
Human mPB CD34+ cells; 1.67657 ng/mL
  Number of CD45RA-CD41-: 9776
Human mPB CD34+ cells; 5.02972 ng/mL
  Number of CD45RA-CD41-: 12700
Human mPB CD34+ cells; 15.08916 ng/mL
  Number of CD45RA-CD41-: 13200
Human mPB CD34+ cells; 45.26749 ng/mL
  Number of CD45RA-CD41-: 13700
Human mPB CD34+ cells; 135.80247 ng/mL
  Number of CD45RA-CD41-: 13300
Human mPB CD34+ cells; 407.40741 ng/mL
  Number of CD45RA-CD41-: 13700
Human mPB CD34+ cells; 1222.22222 ng/mL
  Number of CD45RA-CD41-: 14100
Human mPB CD34+ cells; 3666.66667 ng/mL
  Number of CD45RA-CD41-: 13100
Human mPB CD34+ cells; 11000 ng/mL
  Number of CD45RA-CD41-: 13800
[1]; 0.5 hour
  Percentage (blood level normalized to first time point, 30 min): 100.00%
[1]; 1 hour
  Percentage (blood level normalized to first time point, 30 min): 79.52%
[1]; 3 hour
  Percentage (blood level normalized to first time point, 30 min): 56.81%
[1]; 6 hour
  Percentage (blood level normalized to first time point, 30 min): 14.94%
[1]; 24 hour
  Percentage (blood level normalized to first time point, 30 min): 4.08%
[1]; 48 hour
  Percentage (blood level normalized to first time point, 30 min): 0.00%
[1]; 72 hour
  Percentage (blood level normalized to first time point, 30 min): 0.00%

B2: hGCSF: human G-CSF (protein, UniProt P09919 31-207, looked up)
Granulocyte …: TPLGPASSLPQSFLLKCLEQVRKIQGDGAALQEKLVSECATYKLCHPEELVLLGHSLGIPWAPLSSCPSQALQLAGCLSQLHSGLFLYQGLLQALEGISPELGPTLDTLQLDVADFATTIWQQMEELGMAPALQPTQGAMPAFASAFQRRAGGVLVASHLQSFLEVSYRVLRHLAQP
Mouse NFS-60 cells; 0.09145 ng/mL
  F.I. (fluorescence at 595 nm, AlamarBlue, cell viability): 1266.554
Mouse NFS-60 cells; 0.27435 ng/mL
  F.I. (fluorescence at 595 nm, AlamarBlue, cell viability): 1478.287
Mouse NFS-60 cells; 0.82305 ng/mL
  F.I. (fluorescence at 595 nm, AlamarBlue, cell viability): 1752.216
Mouse NFS-60 cells; 2.46914 ng/mL
  F.I. (fluorescence at 595 nm, AlamarBlue, cell viability): 2224.028
Mouse NFS-60 cells; 7.40741 ng/mL
  F.I. (fluorescence at 595 nm, AlamarBlue, cell viability): 2587.222
Mouse NFS-60 cells; 22.22222 ng/mL
  F.I. (fluorescence at 595 nm, AlamarBlue, cell viability): 2751.249
Mouse NFS-60 cells; 66.66667 ng/mL
  F.I. (fluorescence at 595 nm, AlamarBlue, cell viability): 2815.37
Mouse NFS-60 cells; 200 ng/mL
  F.I. (fluorescence at 595 nm, AlamarBlue, cell viability): 2948.509
Human mPB CD34+ cells; 4.11523 ng/mL
  Number of CD45RA-CD41-: 5900

B3: BLV1H12-IL8: human IL-8 (amino acids 26-99) replacing the knob domain of BLV1H12 CDR3H, SEQ ID NO: 38 (antibody)
heavy: QVQLRESGPSLVKPSQTLSLTCTASGFSLSDKAVGWVRQAPGKALEWLGSIDTGGNTGYNPGLKSRLSITKDNSKSQVSLSVSSVTTEDSATYYCTSVHQETKKYQSPRSAKELRCQCIKTYSKPFHPKFIKELRVIESGPHCANTEIIVKLSDGRELCLDPKENWVQRVVEKFLKRAENSGSGSYTYNYEWHVDVWGQGLLVTV
Parental U2OS
  Median Arbitrary Fluorescence Units (IgG binding): 76 AFU
CXCR1
  specificity (ratio of median fluorescence of CXCR1-U2OS cells versus U2OS parental cells): has specificity for CXCR1
CXCR1; CXCR1-U2OS cells, cell culture supernatant, flow cytometry
  Median Arbitrary Fluorescence Units (IgG binding): 707 AFU

B4: H12 (protein, listed as Bos taurus)
chain: CVIVHQKTTQQSSCPAGFRDCVACTPGPESCCRSGCDGARRRVGLRYFFDSTSPITTYTYEHHIDAW
modifications: H12
[2]
  binding to untransfected cells: weakly bound
[3]
  binding to HEK293A cells transfected with NS2-3 of BVDV: strongly binds
